Measured values: paper PMC11237593, “Human coronavirus OC43 nanobody neutralizes virus and protects mice from infection” (Journal of Virology, 2024)
Where two headings read alike, the source gives them in different places.

T1: OC43 S1B+C (S1B and S1C domains of the hCoV-OC43 spike glycoprotein) (human coronavirus OC43, UniProt P36334 321-675)
T1 construct: also called recombinant OC43 S1B+C; recombinant OC43 protein; source: Expi293F, transfected, purified from supernatant (Ni-NTA IMAC, SEC); not shown: His6, C-terminal, cleaved
T1 sequence (looked up): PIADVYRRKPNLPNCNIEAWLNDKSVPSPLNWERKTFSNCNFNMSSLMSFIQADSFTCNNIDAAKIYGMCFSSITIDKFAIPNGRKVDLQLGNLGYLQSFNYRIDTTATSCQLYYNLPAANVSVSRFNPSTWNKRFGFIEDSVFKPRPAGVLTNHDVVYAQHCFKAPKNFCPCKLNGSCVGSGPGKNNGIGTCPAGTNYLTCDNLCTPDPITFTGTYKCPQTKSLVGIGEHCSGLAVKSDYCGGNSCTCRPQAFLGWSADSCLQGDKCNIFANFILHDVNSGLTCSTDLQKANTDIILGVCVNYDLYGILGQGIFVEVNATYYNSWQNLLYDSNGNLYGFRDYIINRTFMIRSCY


Columns and labels:
[1] = biological target: T1, OC43 S1B+C (S1B and S1C domains of the …); assay: BLI; conditions: both partners purified
[2] = biological target: T1, OC43 S1B+C (S1B and S1C domains of the …); conditions: both partners purified

Binder	Kd [1]	koff [1]	kon [1]	Kd [2]	koff [2]	kon [2]
WNb 299 (VHH) VHH: QVQLQESGGGWVQPGGSLRLSCAASGFTFSNYAMGWFRQAPGKEREFVATISWSGGTTVYADSVKGRFTISRDNAKNTVYLQMNSLKPEDTAVYYCAAASDYGMVQMSDYEYDYWGQGTQVTVSS	9.9 nM	0.00103 s⁻¹	104000 M⁻¹ s⁻¹	–	–	–
WNb 281 (VHH) VHH: QVQLQESGGGLVQAGGSLRLSCAASGRTFSDYFMGWFRQAPGKEREFVTAISWSGGSTYYADSVKGRFTISRDNAKNTVFLQMNSLKPEDTAVYYCAAALDEGWARVAGPEYDYWGQGTQVTVSS	1.55 nM	0.000183 s⁻¹	118000 M⁻¹ s⁻¹	–	–	–
WNb 288 (VHH) VHH: QVQLQESGGGLVQAGGSLRLSCAASGRTFSDYFMGWFRQAPGKEREFVAAISWSGGSTYYADSVKGRSTISRDNAKNTVYLQMNSLKPEDTAVYYCAADHDRGWARLRLAEYDYWGQGTQVTVSS	19.6 nM	0.00124 s⁻¹	64000 M⁻¹ s⁻¹	–	–	–
WNb 287 (VHH) VHH: QLQESGGGLVQPGGSLRLSCAASGRTFSFSDYAMGWFRQAPGKEREFVASISWSGGTTYYADSVKGRFTISRDNAKNTVYLQMNSLKPEDTAVYYCAAEIDRGLLLHAVYEYDYWGQGTQVTVSS	11.2 nM	0.000933 s⁻¹	84000 M⁻¹ s⁻¹	–	–	–
WNb 297 (VHH) VHH: QVQLQESGGGSVQAGGSLRLSCAASGRTFSDYAMGWFRQAPGKEREFVASISWSGGTTYYADSVKGRFTISRDNAKNTVYLQMNSLKPEDTAVYYCAADTDYGMGLITVPDFGSWGQGTQVTVSS	21.4 nM	0.00199 s⁻¹	93000 M⁻¹ s⁻¹	–	–	–
WNb 298 (VHH) VHH: QVQLQESGGGLVQPGGSLRLSCAASGRTFSDYFMGWFRQAPGKEREFVASISWSGGTTYYADSVKGRFTISRDNAKNTVYLQMNSLKPEDTAVYYCAAEIDYGLGLHAAADFGSWGQGTQVTVSS	8.94 nM	0.000987 s⁻¹	111000 M⁻¹ s⁻¹	–	–	–
WNb 289 (VHH) VHH: QVQLQESGGGLVQAGGSLRLSCAASGRTFSDYAMGWFRQAPGKEREFVATISWSGGTTYYADSVKGRFTISRDNAKNTVYLQMNSLKPEDTAVYYCAAVMDLGMLAADGYEYDYWGQGTQVTVSS	4.73 nM	0.000629 s⁻¹	132000 M⁻¹ s⁻¹	–	–	–
WNbFc 293 (Fc fusion, also called WNb 293-Fc; WNb 293-Fc fusion; source: Expi293F, transfected, purified from supernatant (MabSelect Prism A, SEC)) QVQLQESGGGSVQAGDSLRLSCVASGRTFSSYALGWFRRAPGKEREFVAAISWSGGTTYYADSVKGRFTISRDNAKNTVYLQMNSLKPEDTAVYYCAALWDGGSWYPEGLSDFGSWGQGTQVTVSS	–	–	–	7.51 nM	0.000758 s⁻¹	101000 M⁻¹ s⁻¹
WNb 294 (VHH) VHH: QVQLQESGGGLVQAGGSLRLSCAASGRTFSSYAMGWFRQAPGKEREFVAAISWSGGTTYYGDSVKGRFTISRDNAKNTVYLQMNSLKPEDTAVYYCAAQGDGGSWFPEGLADFGSWGQGTQVTVSS	26 nM	0.00106 s⁻¹	41000 M⁻¹ s⁻¹	–	–	–
WNbFc 294 (Fc fusion, source: Expi293F, transfected, purified from supernatant (MabSelect Prism A, SEC)) QVQLQESGGGLVQAGGSLRLSCAASGRTFSSYAMGWFRQAPGKEREFVAAISWSGGTTYYGDSVKGRFTISRDNAKNTVYLQMNSLKPEDTAVYYCAAQGDGGSWFPEGLADFGSWGQGTQVTVSS	–	–	–	36.9 nM	0.00164 s⁻¹	45000 M⁻¹ s⁻¹
WNb 293 (VHH) VHH: QVQLQESGGGSVQAGDSLRLSCVASGRTFSSYALGWFRRAPGKEREFVAAISWSGGTTYYADSVKGRFTISRDNAKNTVYLQMNSLKPEDTAVYYCAALWDGGSWYPEGLSDFGSWGQGTQVTVSS	4.6 nM	0.000417 s⁻¹	91000 M⁻¹ s⁻¹	–	–	–
WNb 286 (VHH) VHH: QVQLQESGGGLVQAGGSLRLSCAASGRTFSSYAMGWFHQAPGKEREFVASISWSGGTTYYADSVKGRFTISRDNAKNTVYLQMNSLKPEDTAVYYCAAAVDYGLGLYRVGEYDSWGQGTQVTVSS	58.8 nM	0.00245 s⁻¹	42000 M⁻¹ s⁻¹	–	–	–
WNb 284 (VHH) VHH: QVQLQESGGGLVQAGGPLRLSCAASGRTFSDYFMGWFRQAPGMEREFVASISWSGGTTYYADSVKGRFTISRDNAKNTVYLQMNSLKPEDTAVYYCAAAIDYGLGLTVEYEYDYWGQGTQVTVSS	4.01 nM	0.000363 s⁻¹	91000 M⁻¹ s⁻¹	–	–	–
WNb 296 (VHH) VHH: QVQLQESGGGLVQAGGSLRLSCAASGRTFSDYFMGWFRQAPGKEREFVASISWSGGTTYYADSVKGRFTISRDNANNTVYLQMNSLKPVDTAVYYCAAVADYGLGLTTSYEYDYWGQGTQVTVSS	15.3 nM	0.000786 s⁻¹	51000 M⁻¹ s⁻¹	–	–	–
WNb 278 (VHH) VHH: QVQLQESGGGLVQAGGSLRLSCAASGRTFSDYFMGWFRQAPGMEREFVASISWSGGTTYYADSVKGRFTISRDNTKNTVYLQMNSLKPEDTAVYYCATAIDYGLGLTVEYEYDYWGQGTQVTVSS	5.93 nM	0.0004 s⁻¹	68000 M⁻¹ s⁻¹	–	–	–
WNb 292 (VHH) VHH: QVQLQESGGGLVQAGASLRLSCAASGRTFSDYAMGWFRQAPGKEREFVAAISWSGGTTYYADSVKGRFTISRDNAKNTVYLQMNSLKPEDTAVYYCAANTDYGLGLVRAYEYDYWGQGTQVTVSS	15.6 nM	0.00116 s⁻¹	75000 M⁻¹ s⁻¹	–	–	–
WNb 280 (VHH) VHH: QVQLQESGGGLVQAGGSLRLSCAASGRTFSNYFMGWFRQAPGKEREFVAAISWSGGSTYYTDSVKGRFTISRDNAKNTVYLQMNSLKPEDTAVYYCAGGLDMGWSRVNLGEYDYWGQGTQVTVSS	22.9 nM	0.00161 s⁻¹	70000 M⁻¹ s⁻¹	–	–	–
WNb 279 (VHH) VHH: QVQLQESGGGLVQPGGSLRLSCAASGRTFSDYFMGWFRQAPGKEREFVAAITWSGGSTYYTDSVKGRFTISRDNAKNTVYLQMNSLKPEDTAVYYCAGGLDMGWSRVALGEYDYWGQGTQVTVSS	149 nM	0.0086 s⁻¹	58000 M⁻¹ s⁻¹	–	–	–
WNb 285 (VHH) VHH: QVQLQESGGGLVQAGGSLRLSCAASGRTFSDYAMGWFRQAPGKEREFVAAISWSGGTTYYADSVKGRFTISRDNAKNTVYLQMNSLTPEDTAVYYCAADYDYGWGRVRVSEYDYWGQGTQVTVSS	4.23 nM	0.000447 s⁻¹	106000 M⁻¹ s⁻¹	–	–	–
WNb 291 (VHH) VHH: QVQLQESGGGLVQAGGSLRLSCAASGRTFSNYFMGWFRQAPGKEREFVAAISWSGGTTYYADSVKGRFTISRDNAKNTVYLQMNSLKPEDTAVYYCAANTDYGMGFVRAYEYDYWGQGTQVTVSS	11.7 nM	0.000527 s⁻¹	45000 M⁻¹ s⁻¹	–	–	–
WNb 282 (VHH) VHH: QVQLQESGGGLVQAGDSLRLSCAASGRTFSDYFMGWFRQAPGKEREFVASISWSGGTTYYADSVKGRFTISRDNAKNTVYLQMNRVKSEDTAVYYCAAARDMGWGRTGENEYDYWGQGTQVTVSS	2.46 nM	0.000195 s⁻¹	79000 M⁻¹ s⁻¹	–	–	–
WNb 276 (VHH) VHH: QVQLQESGGGLVQSGGSLRLSCAASGFTFSNYGMMWVRQAPGKGVEWVSRIDSDGTITLYKDSVKGRFTISRDNAKNMLYLQMESLKPEDTALYYCIKVMDWVPGRAPPFRGQGTQVTVSS	6.46 nM	0.000518 s⁻¹	82000 M⁻¹ s⁻¹	–	–	–
